Data on 1 protein can be found in US20100129861.

This data set addresses 43S complexes containing 40S subunits and eIFs 2/3/1/1A.

B1: DHX29 (purified native DHX29, DExH-box helicase) (protein)
chain: MGGKNKKHKAPAAAVVRAAVSASRAKSAEAGIAGEAQSKKPVSRPATAAAAAAGSREPRVKQGPKIYSFNSTNDSSGPANLDKSILKVVINNKLEQRIIGVINEHKKQNNDKGMISGRLTAKKLQDLYMALQAFSFKTKDIEDAMTNTLLYGGDLHSALDWLCLNLSDDALPEGFSQEFEEQQPKSRPKFQSPQIQATISPPLQPKTKTYEEDPKSKPKKEEKNMEVNMKEWILRYAEQQNEEEKNENSKSLEEEEKFDPNERYLHLAAKLLDAKEQAATFKLEKNKQGQKEAQEKIRKFQREMETLEDHPVFNPAMKISHQQNERKKPPVATEGESALNFNLFEKSAAATEEEKDKKKEPHDVRNFDYTARSWTGKSPKQFLIDWVRKNLPKSPNPSFEKVPVGRYWKCRVRVIKSEDDVLVVCPTILTEDGMQAQHLGATLALYRLVKGQSVHQLLPPTYRDVWLEWSDAEKKREELNKMETNKPRDLFIAKLLNKLKQQQQQQQQHSENKRENSEDPEESWENLVSDEDFSALSLESANVEDLEPVRNLFRKLQSTPKYQKLLKERQQLPVFKHRDSIVETLKRHRVVVVAGETGSGKSTQVPHFLLEDLLLNEWEASKCNIVCTQPRRISAVSLANRVCDELGCENGPGGRNSLCGYQIRMESRACESTRLLYCTTGVLLRKLQEDGLLSNVSHVIVDEVHERSVQSDFLLIILKEILQKRSDLHLILMSATVDSEKFSTYFTHCPILRISGRSYPVEVFHLEDIIEETGFVLEKDSEYCQKFLEEEEEVTINVTSKAGGIKKYQEYIPVQTGAHADLNPFYQKYSSRTQHAILYMNPHKINLDLILELLAYLDKSPQFRNIEGAVLIFLPGLAHIQQLYDLLSNDRRFYSERYKVIALHSILSTQDQAAAFTLPPPGVRKIVLATNIAETGITIPDVVFVIDTGRTKENKYHESSQMSSLVETFVSKASALQRQGRAGRVRDGFCFRMYTRERFEGFMDYSVPEILRVPLEELCLHIMKCNLGSPEDFLSKALDPPQLQVISNAMNLLRKIGACELNEPKLTPLGQHLAALPVNVKIGKMLIFGAIFGCLDPVATLAAVMTEKSPFTTPIGRKDEADLAKSALAMADSDHLTIYNAYLGWKKARQEGGYRSEITYCRRNFLNRTSLLTLEDVKQELIKLVKAAGFSSSTTSTSWEGNRASQTLSFQEIALLKAVLVAGLYDNVGKIIYTKSVDVTEKLACIVETAQGKAQVHPSSVNRDLQTHGWLLYQEKIRYARVYLRETTLITPFPVLLFGGDIEVQHRERLLSIDGWIYFQAPVKIAVIFKQLRVLIDSVLRKKLENPKMSLENDKILQIITELIKTENN
B1: the NTPase activity entry is “DHX29's NTPase activity was strongly stimulated by 43S complexes, whereas stimulation by single-stranded RNA was low”.
